The record followed here is patent US20250179160A1 (OMEROS, published 2025).

Where two headings read alike, the source gives them in different places.

Usually EC50 (read off the curve) stands for the concentration needed to bring the measured effect to its halfway point.

Test [1] addresses T1, recombinant human Pro-Factor D-His (human, UniProt P00746 20-253).
T1 construct: also called recombinant human Pro-CFD-His; not shown: His tag
The experiment in a line: ELISA: antibody titrated from 3 ug/ml on 1 ug/ml plate-immobilized His-tagged Factor D; labeled goat anti-mouse IgG Fc; OD450. For orientation: ELISA stands for enzyme-linked immunosorbent assay.

The target in test [2] is T2, recombinant human mature Factor D-His (human, UniProt P00746 26-253).
T2 construct: also called recombinant human mature CFD-His; not shown: His tag
The test is described as above.

Test [3] deals with T3, recombinant human Pro-Factor D (human, UniProt P00746 20-253).
T3 construct: also used for the endogenous pro-Factor D detected in 3MC patient serum; also called pro CFD; hPro-CFD
The experiment in a line: ELISA: antibody titrated 3-fold from 3 ug/ml on plate coated with 1 ug/ml recombinant human pro-Factor D; HRP anti-mouse, rat or human secondary; OD450.

Test [4] deals with T3, recombinant human Pro-Factor D. The experiment in a line: sandwich ELISA: coat 21H1 (human IgG4) 1 ug/ml, recombinant human pro-Factor D spiked into diluent and titrated, detection biotin goat polyclonal BAF1824 and HRP-streptavidin; OD450.
Description: Controls of no additional Factor D in sera were treated similarly (unspiked). Assay wells were incubated for 1 hour at room temperature then washed three times with PBST. […] After incubation and washing, HRP-tagged Streptavidin was added, incubated, and washed, followed by TMB substrate.
For test [5], the target named is T4, recombinant human mature Factor D (human, UniProt P00746 26-253).
T4 construct: also called mature CFD; hCFD
The experiment in a line: ELISA: antibody titrated 3-fold from 3 ug/ml on plate coated with 1 ug/ml recombinant human mature Factor D; HRP anti-mouse, rat or human secondary; OD450.

Test [6] deals with T1, recombinant human Pro-Factor D-His. The experiment in a line: ELISA: antibody titrated from 3 ug/ml on 1 ug/ml plate-immobilized His-tagged Factor D; labeled goat anti-mouse IgG Fc; OD450. This is another data set of the same source.
Description: (§1) The candidate antibodies were titrated starting at 3 μg/mL antibody binding to 1 μg/mL plate-immobilized recombinant human mature Factor D-His or recombinant human Pro-Factor D-His proteins. Bound antibodies were detected by a labeled goat polyclonal antibody specific for mouse IgG Fc (Jackson ImmunoResearch).
The target of test [7] is T2, recombinant human mature Factor D-His. The description is as above. The source holds these as a separate data set.
Description: as §1
Test [8] concerns the target T3, recombinant human Pro-Factor D. The experiment in a line: capture ELISA: recombinant Factor D captured by plate-bound goat polyclonal AF1824; hybridoma supernatant diluted two-fold; OD450.
Description: Hybridoma supernatants were first screened for binding to immobilized recombinant human mature Factor D-His. […] ELISA plates were coated with polyclonal anti-human factor D antibody AF1824 (R&D Systems). Hybridoma supernatants were diluted two-fold in PBS, 0.05% Tween 20 (PBST). Supernatant from NS-1 myeloma cell line (NS-1 sup) was included as a matrix control to determine the level of assay background.
For test [9], the target named is T5, recombinant human mature Factor D, Strep tagged (human, UniProt P00746 26-253).
T5 construct: also called recombinant human mature CFD-Strep tagged; recombinant human mature Factor D-Streptavidin; not shown: Strep tag
As to the kind of experiment: ELISA with hybridoma supernatant on immobilized antigen.

B1: 3C5, recombinant purified, mouse IgG2a Fc (antibody)
heavy: EVKLVESGGGLVQPGGSLKLSCATSGFTFSDYGMAWVRQAPGKGPEWVAFISNLAYSFYYVDIVMGRFTISRENAKNTLYLEMSSLRSEDTAMYYCARVGLYGNFFMDYWGQGTSVTVSSAKTTAPSVYPLAPVCGDTTGSSVTLGCLVKGYFPEPVTLTWNSGSLSSGVHTFPAVLQSDLYTLSSSVTVTSSTWPSQSITCNVAHPASSTKVDKKIEPRGPTIKPCPPCKCPAPNLLGGPSVFIFPPKIKDVLMISLSPIVTCVVVDVSEDDPDVQISWFVNNVEVHTAQTQTHREDYNSTLRVVSALPIQHQDWMSGKEFKCKVNNKDLPAPIERTISKPKGSVRAPQVYVLPPPEEEMTKKQVTLTCMVTDFMPEDIYVEWTNNGKTELNYKNTEPVLDSDGSYFMYSKLRVEKKNWVERNSYSCSVVHEGLHNHHTTKSFSRTPGK
light: DIQMNQSPSSLSASLGDTITITCHASQNINVWLSWYQQKPGNIPELLIYKASNLHTGVPSRFSGNRSGTSFTLTISSLQPEDIGTYFCQQGQSYPLTFGAGTKLELRRADAAPTVSIFPPSSEQLTSGGASVVCFLNNFYPKDINVKWKIDGSERQNGVLNSWTDQDSKDSTYSMSSTLTLTKDEYERHNSYTCEATHKTSTSPIVKSFNRNEC
notes: Mouse IgG2a and mouse kappa constant regions
Regarding B1, the “EC50 (read off the curve)” value was around 0.04 µg/mL in [1] and around 0.06 µg/mL in test [2].

B2: 21H1, purified recombinant, human IgG4 Fc (antibody, V domains shown)
VH: DVQLQESGPGLVKPSQSLSLTCTVTGYSITSDYAWNWIRQFPGNKLEWMGYISYSGSTGYSPSLKSRISITRDTSKNQFFLHLNSVTTGDTATYYCARNGAMDYWGQGISVTVSS
VL: DIVLTQSPASLAVSLGQRATISCKASQSVDYDGDSYMNWYQQKPGQPPKLLIYDASTLESGIPARFSGSGSGTDFTLNIHPVEEEDAATYYCQQNYEAPWTFGGGTKLEIKR
notes: Mouse variable regions on human IgG4 (S228P) and human kappa constant regions; also called mAb 21H1; anti-pro Factor D-specific antibody 21H1
With B2, the “EC50 (read off the curve)” value is around 0.02 µg/mL in [3] and around 0.004 µg/mL in test [4]. In addition, the binding result in test [5] is recorded as “no binding (tested: 3 ug/ml)”.

B3: 13A10, purified recombinant, human IgG4 (antibody, V domains shown)
VH: DVQLQESGPGLVKPSQSLSLTCTVTGYSITSDYAWNWIRQFPGNKLEWMGYISYIGGIGYNPSLKSRISITRDTSKNQFFLHLNSVTTGDTATYYCARNGAMDFWGQGISVTVSS
VL: DIVLTQSPASLAVSLGQRATISCKASQSVDYDGDSYMNWYQQKPGQPPKLLIYDASNLESGIPARFSGSGSGTDFTLNIHPVEEEDAATYYCQQSNEAPWTFGGGTKLEIKR
notes: Mouse variable regions on human IgG4 (S228P) and human kappa constant regions
For the molecule B3, in [3], the 50% effective concentration (EC50 (read off the curve)) was around 0.02 µg/mL. The binding result in test [5] is recorded as “no binding (tested: 3 ug/ml)”.

B4: 12H10, recombinant purified, mouse IgG2a Fc (antibody)
heavy: EVQLVESGGGLVQPKGSLKLSCAASGFSFNTYAMNWVRQAPGKGLEWVARIRSKSNNYATYYADSVKDRFTISRDDSESMLYLQMNNLKTEDTAMYYCVRHGYYWYFDVWGTGTTVTVSSAKTTAPSVYPLAPVCGDTTGSSVTLGCLVKGYFPEPVTLTWNSGSLSSGVHTFPAVLQSDLYTLSSSVTVTSSTWPSQSITCNVAHPASSTKVDKKIEPRGPTIKPCPPCKCPAPNLLGGPSVFIFPPKIKDVLMISLSPIVTCVVVDVSEDDPDVQISWFVNNVEVHTAQTQTHREDYNSTLRVVSALPIQHQDWMSGKEFKCKVNNKDLPAPIERTISKPKGSVRAPQVYVLPPPEEEMTKKQVTLTCMVTDFMPEDIYVEWTNNGKTELNYKNTEPVLDSDGSYFMYSKLRVEKKNWVERNSYSCSVVHEGLHNHHTTKSFSRTPGK
light: DVLMTQTPLSLPVSLGDQASISCRSSQSIVHSDGNTYLEWYLQKPGQSPKLLIYRVSNRFSGVPDRFSGSGSGTDFTLKISRVEAEDLGVYYCFQGSHVPYTFGGGTKLEIKRADAAPTVSIFPPSSEQLTSGGASVVCFLNNFYPKDINVKWKIDGSERQNGVLNSWTDQDSKDSTYSMSSTLTLTKDEYERHNSYTCEATHKTSTSPIVKSFNRNEC
notes: as for B1
For the molecule B4, the half-maximal effective concentration (EC50 (read off the curve)) in [6] was around 0.02 µg/mL; in [7], around 0.04 µg/mL.

B5: 6G6, hybridoma supernatant (antibody, V domains shown)
VH: QITLKESGPGILQSSQTLSLTCSFSGISLTTSGMGVSWIRQPSGKGLEWLAHIYWDDEKHYHPSLKSRLTISKDASRNQVFFRILSVDTADTATYYCALRYYGYRSFMDYWGQGTSVTVSS
VL: DVLMTQSPLSLPVSLGDQASIFCRSNQSIVHSNGNTYFEWYLQKPGQSPKLLIYKVSNRFSGVPDRFSGSGSGTDFTLRISRVEAEDLGVYYCFQGSHVPPTFGGGTKLEIKR
notes: Mouse hybridoma antibody
In the case of B5, the binding result in test [8] was “no binding”.

B6: 49G3, hybridoma supernatant (antibody, V domains shown)
VH: QVTLKESGPGILQSSQTLSLTCSFSGISLSSSGMGVSWIRQPSGKGLEWLAHIYWDDEKHYNPSLKSRLTISKDASRNQIFLKIISVDTADTATYYCALRYYGYNYVMHYWGQGTSVTVSS
VL: DVLMTQTPLSLPVSLGDQASISCRSSQSILHSNGNTYFEWYLQKPGQSPKLLIYKVSNRFSGVPDRFSGSGSGTDFTLKISRVEAEDLGVYYCFQGSHVPPTFGGGTKLEIKR
notes: Mouse hybridoma antibody
B6: the binding result in [8] is on record as “no binding”.

B7: 11H1, hybridoma supernatant (antibody, V domains shown)
VH: EVQLVESGGGLVQPKGSLKLSCAASGFSFNTYAMNWVRQAPGKGLEWVARIRSKSNNYATHYADSVKDRFTISRDDSESMLYLQMNNLKTEDTAMYYCVRQGYYWYFDVWGTGTTVTVSS
VL: DVLMTQTPLSLPVSLGDQASISCRSSQSIVHSNGNTYLEWYLQKPGQSPKLLIYTVSNRFSGVPDRFSGSGSGTDFTLKISRVEAEDLGVYYCFQGSHVPWTFGGGTKLEIKR
notes: Mouse hybridoma antibody
In the case of B7, the binding result in test [9] is reported as “binds”.

B8: 27B3, hybridoma supernatant (antibody, V domains shown)
VH: QVTLKESGPGILQSSQTLSLTCSFSGISLNISGMGVSWIRQPSGKGLEWLAHIYWDDEKHYNPSLKRRLTISKDASRNQVFFRISSVDSADTATYYCALRYYGYGSIMDYWGHGTSVTVSS
VL: DVLMTQTPLSLPVSLGDQASISCRSSQSIVHSNGNTYFEWYLQKPGQSPKLLIYKVSNRFSGVPDRFSGSGSGTDFTLKISRVEAEDLGVYYCFQGSHVPPTFGGGTKLEIKR
notes: Mouse hybridoma antibody
In the case of B8, the binding result in test [8] is “no binding”.

B9: 7H2, hybridoma supernatant (antibody, V domains shown)
VH: EVQVVESGGGLVRPKGSLKLSCAASGFSFNTYAMNWVRQAPGKGLEWVARIRSKSNNYATYYADSVKDRFTISRDDSESMLSLQMNNLKTEDTAMYYCVRQGYYWYFDVWGTGTTVTVSS
VL: DVLMTQTPLSLPVSLGDQASISCRSSQSIVHSNGNTYLEWYLQKPGQSPKLLIYTVSNRFSGVPDRFRGSGSGTDFTLKISRVEAEDLGVYYCFQGSHVPWTFGGGTKLEIKR
notes: Mouse hybridoma antibody
For the molecule B9, the binding result in test [9] is on record as “binds”.

B10: 58F5, hybridoma supernatant (antibody, V domains shown)
VH: QVTLKESGPGILQSSQTLSLTCSFSGISLNTSIMGVSWIRQPSGKGLEWLAHIYWDDEKHYNPSLKSRLTISKDASRNQVFLKIISVDTADTATYYCALRYYGYNYVMHYWGQGTSVTVSS
VL: DVLMTQTPLSLPVSLGDQASISCRSSQSIVHSNGNTYLEWYLQKPGQSPKLLIYKVSNRFSGVPDRFSGSGSGTDFTLKISRVEADDLGVYYCFQGSHVPPTFGGGTKLEIKR
notes: Mouse hybridoma antibody; also called 58GF5
B10: the binding result in [8] was “no binding”.

B11: 10G1, hybridoma supernatant (antibody, V domains shown)
VH: QVTLKESGPGILQSSQTLSLTCSFSGVSLSSSGMGVSWIRQPSGKGLEWLAHIYWDDEKHYNPSLKSRLTISKGASRNQVFLKIISVDTADTATYYCALRYYGYNSIMHYWGQGASVTVSS
VL: DVLMTQTPLSLPVSLGDQASISCRSSESIVHSNGNTYLEWYLQKPGQSPKLLIYKVYNRFSGVPDRFSGSGSGTDFTLKISRVEAEDLGVYYCFQGSHVPPTFGGGTKLEIKR
notes: Mouse hybridoma antibody
Regarding B11, in test [8], the binding result is listed as “no binding”.

B12: 18F5, purified recombinant, human IgG4 (antibody, V domains shown)
VH: EVKLEESGGGLVQPGGSMKLSCVASGFTFGNYWMSWVRQSPEKGLEWVAEIRLKSDNYATHYAESVKGKFTISRDDSKSRLYLQMNSLRGEDTGLYYCTNAWFASWGQGTLVTVSA
VL: DIVMSQSPSSLAVSVGEKVTMSCMSSQSLLYSKDQKNYLAWYQQKPGQSPKLLIYWASTRESGVPDRFTGSGSGTDFTLTISSVKAEDLAVYYCLQYYTYPYTFGGGTKLEIKR
notes: as for B3
B12: the concentration for a half-maximal effect (EC50 (read off the curve)) in test [3] was around 0.03 µg/mL. Moreover, the binding result in test [5] is on record as “no binding (tested: 3 ug/ml)”.

B13: 2A4, purified recombinant, human IgG4 (antibody, V domains shown)
VH: EVKLEESGGGLVQPGGSMKLSCVASGFTFSTYWMSWVRQSPEKGLEWVAEIRLKSDNYATHYTESVKGKFTISRDDSKSRLYLQMNSLRVEDTGIYYCTNAWFAYWGQGTLVTVSA
VL: DIVMSQSPSSLAVSVGEKFTMSCKSSQSLLYSRDQKNYLAWYQQQPGQSPKLLIYWASTRESGVPDRFTGSGSGTDFTLTISSVKTEDLAVYYCLQYYSYPYTFGGGTKLEIKR
notes: as for B3
In the case of B13, the “EC50 (read off the curve)” value in test [3] is around 0.03 µg/mL. The binding result in [5] was “no binding (tested: 3 ug/ml)”.
